From patent US20220135687A1

Legend:
[1] = target: cynomolgus PD-L1 Fc-fusion protein (cynomolgus) (UniProt G7PSE7); assay: SPR, cyno PD-L1-Fc immobilised, antibody analyte
[2] = target: cynomolgus PD-L1 overexpressing stable cell line (cynomolgus) (UniProt G7PSE7); assay: FACS, cynomolgus PD-L1 cell line
Chain of cynomolgus PD-L1 overexpressing stable cell line (cynomolgus) (G7PSE7 entry or part of it limits assumed): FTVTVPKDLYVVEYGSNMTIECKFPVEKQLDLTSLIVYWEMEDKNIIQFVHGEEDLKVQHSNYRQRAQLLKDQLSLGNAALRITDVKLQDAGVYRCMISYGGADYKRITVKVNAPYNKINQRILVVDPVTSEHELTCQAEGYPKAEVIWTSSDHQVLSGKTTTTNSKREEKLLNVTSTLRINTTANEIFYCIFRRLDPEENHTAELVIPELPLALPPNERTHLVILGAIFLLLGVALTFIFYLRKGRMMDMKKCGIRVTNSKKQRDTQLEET

Chain of Durvalumab (antibody) (VH): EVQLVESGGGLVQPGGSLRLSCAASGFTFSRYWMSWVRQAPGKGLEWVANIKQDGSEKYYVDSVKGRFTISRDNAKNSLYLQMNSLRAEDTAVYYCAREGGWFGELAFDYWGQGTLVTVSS
Chain of Durvalumab (antibody) (VL): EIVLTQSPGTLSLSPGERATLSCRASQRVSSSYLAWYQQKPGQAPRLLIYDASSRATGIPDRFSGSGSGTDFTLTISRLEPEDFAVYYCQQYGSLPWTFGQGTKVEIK
Chain of cynomolgus PD-L1 Fc-fusion protein (cynomolgus) (G7PSE7 entry or part of it limits assumed): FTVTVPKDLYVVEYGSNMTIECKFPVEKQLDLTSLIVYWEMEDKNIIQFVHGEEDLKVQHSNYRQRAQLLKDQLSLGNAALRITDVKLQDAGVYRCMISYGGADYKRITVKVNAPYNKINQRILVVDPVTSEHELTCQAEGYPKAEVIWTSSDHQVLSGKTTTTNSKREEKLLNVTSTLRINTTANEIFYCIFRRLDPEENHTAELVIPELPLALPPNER

## Durvalumab (antibody)
[1]
  Kd: 1.1 nM
[2]
  EC50: 3.07 nM
  Top (best-fit value): 8220
